Measured values taken from patent US20090318342A1, “Compounds” (IMPERIAL INNOVATIONS LIMITED, priority 2005, published 2009).

T1: ADAMTS-4 (as used in Example 4; form not stated) (Homo sapiens (Human)) (UniProt O75173)
T1 sequence: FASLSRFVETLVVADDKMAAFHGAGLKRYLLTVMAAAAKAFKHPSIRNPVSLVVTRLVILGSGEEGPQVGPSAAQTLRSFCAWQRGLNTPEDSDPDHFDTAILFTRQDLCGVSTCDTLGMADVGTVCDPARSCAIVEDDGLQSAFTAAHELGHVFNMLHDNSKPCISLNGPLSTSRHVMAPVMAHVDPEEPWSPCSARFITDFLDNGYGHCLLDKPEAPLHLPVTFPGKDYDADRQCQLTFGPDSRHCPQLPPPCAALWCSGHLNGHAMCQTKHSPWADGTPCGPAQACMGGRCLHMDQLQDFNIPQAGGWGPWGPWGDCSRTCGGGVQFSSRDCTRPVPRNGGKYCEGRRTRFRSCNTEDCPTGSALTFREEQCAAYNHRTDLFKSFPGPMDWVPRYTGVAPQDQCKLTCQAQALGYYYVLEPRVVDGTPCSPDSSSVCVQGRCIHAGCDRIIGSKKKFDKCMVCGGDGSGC


Legend:
[1] = biological target: TACE/ADAM17 on human monocytic cells (THP-1 cells; monocyte-derived macrophages) (human) (UniProt P78536)
[2] = biological target: soluble form of TACE in which the transmembrane and C-terminal cytoplasmic domains are deleted (TACE R651) (human) (UniProt P78536); assay: TACE inhibition kinetics at pH 7.5
[3] = biological target: T1, ADAMTS-4 (as used in Example 4; form not stated) (Homo sapiens (Human)); assay: GST-IGD-FLAG substrate assay, Ki(app)
[4] = biological target: ADAMTS-5 (Homo sapiens (Human)) (UniProt Q9UNA0); assay: GST-IGD-FLAG substrate assay, Ki(app)
[5] = biological target: catalytic domain of stromelysin 1 (MMP-3(ΔC)) (Homo sapiens (Human)) (UniProt P08254); assay: enzyme inhibition kinetics, Ki(app), as in Example 1
[6] = biological target: full-length collagenase 1 (MMP-1) (Homo sapiens (Human)) (UniProt P03956); assay: as above
full-length collagenase 1 (MMP-1) (Homo sapiens (Human)), sequence (P03956 100-469 limits assumed): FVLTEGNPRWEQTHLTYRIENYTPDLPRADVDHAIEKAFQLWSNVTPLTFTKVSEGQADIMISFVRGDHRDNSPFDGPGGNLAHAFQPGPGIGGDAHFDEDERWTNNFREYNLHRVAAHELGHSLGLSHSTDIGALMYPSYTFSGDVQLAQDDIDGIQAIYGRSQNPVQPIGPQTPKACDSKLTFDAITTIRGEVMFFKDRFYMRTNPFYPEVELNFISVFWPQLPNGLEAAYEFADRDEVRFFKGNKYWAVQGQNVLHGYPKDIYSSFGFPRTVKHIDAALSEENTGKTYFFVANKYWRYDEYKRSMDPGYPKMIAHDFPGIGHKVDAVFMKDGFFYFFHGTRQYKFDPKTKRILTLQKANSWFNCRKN

[7] = biological target: gelatinase A (MMP-2) (Homo sapiens (Human)) (UniProt P08253); assay: as above
gelatinase A (MMP-2) (Homo sapiens (Human)), sequence (P08253 110-660 limits assumed): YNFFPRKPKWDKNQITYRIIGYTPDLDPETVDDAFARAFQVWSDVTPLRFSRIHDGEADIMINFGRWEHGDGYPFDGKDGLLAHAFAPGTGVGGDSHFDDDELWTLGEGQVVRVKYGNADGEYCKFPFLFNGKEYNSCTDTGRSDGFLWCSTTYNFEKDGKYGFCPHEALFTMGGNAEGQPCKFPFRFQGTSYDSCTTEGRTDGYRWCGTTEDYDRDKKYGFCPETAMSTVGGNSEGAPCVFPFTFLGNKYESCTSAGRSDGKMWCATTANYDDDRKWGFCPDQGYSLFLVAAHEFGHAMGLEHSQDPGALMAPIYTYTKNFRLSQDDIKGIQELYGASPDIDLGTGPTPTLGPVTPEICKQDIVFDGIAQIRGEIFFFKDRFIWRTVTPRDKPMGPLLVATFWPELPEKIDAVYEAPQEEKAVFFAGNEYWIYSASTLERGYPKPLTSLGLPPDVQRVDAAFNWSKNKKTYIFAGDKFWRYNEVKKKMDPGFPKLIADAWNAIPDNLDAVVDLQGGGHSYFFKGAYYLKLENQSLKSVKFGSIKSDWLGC

[8] = biological target: full-length collagenase 1 (MMP-1) (Homo sapiens (Human)) (UniProt P03956); assay: MMP-1 inhibition under the conditions used for TACE activity measurements
[9] = biological target: soluble form of TACE in which the transmembrane and C-terminal cytoplasmic domains are deleted (TACE R651) (human) (UniProt P78536); assay: TACE inhibition kinetics, Ki(app), pH 9.0, fit with equation 3 (cooperative)
[10] = biological target: soluble form of TACE in which the transmembrane and C-terminal cytoplasmic domains are deleted (TACE R651) (human) (UniProt P78536)

LPS stimulated TNFα release by monocyte-derived macrophages (ELISA) [1]	Ki [2]	Ki [3]	Ki [4]	Ki [5]	Ki [6]	Ki [7]	Ki [8]	Ki [9]	inhibition of TACE activity (% inhibition at 100 nM) [10]	Binder
180 nM	26 nM	2.4 nM	0.4 nM	1.8 nM	8.2 nM	5.1 nM	1.6 nM	13.7 nM		wild-type N-TIMP-3 (N-terminal inhibitory domain of tissue inhibitor of metalloproteinase-3), C-terminally His-tagged (protein) CTCSPSHPQDAFCNSDIVIRAKVVGKKLVKEGPFGTLVYTIKQMKMYRGFTKMPHVQYIHTEASESLCGLKLEVNKYQYLLTGRVYDGKMYTGLCNFVERWDQLTLSQRKGLNYRYHLGCN
				> 250 nM					80 to 90	(-2A)N-TIMP-3 (protein) AACTCSPSHPQDAFCNSDIVIRAKVVGKKLVKEGPFGTLVYTIKQMKMYRGFTKMPHVQYIHTEASESLCGLKLEVNKYQYLLTGRVYDGKMYTGLCNFVERWDQLTLSQRKGLNYRYHLGCN
